Assay results reported in the supplement of paper PMC10201428.
± gives the standard deviation of the averaged measurements.

Key:
[1] = tested on: VchCAST RNA-guided transposition machinery (E. coli BL21(DE3) host, lacZ target); experiment: relative integration efficiency (T-RL orientation) vs wild-type transposon end (log2 (normalized fold change)); transposon end mutated: right end (5 bp flank + 75 bp right end); higher = more efficient transposition
Outline: (§1)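 A T7-driven effector plasmid encoding a CRISPR array, tniQ-cas8-cas7-cas6 and tnsA-tnsB-tnsC was co-transformed into E. coli BL21(DE3) together with a pUC57 mini-transposon donor holding barcoded pools of 1549 left-end or 1849 right-end variants. Transformants were plated with 0.1 mM IPTG at 37°C for 18 h. Illumina sequencing of PCR-amplified input plasmids and genomic integration junctions gave barcode abundances, and relative integration efficiency is their output/input fold change, normalised to reference barcodes and log-transformed.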

[2] = tested on: VchCAST RNA-guided transposition machinery (E. coli BL21(DE3) host, lacZ target); experiment: relative integration efficiency (T-LR orientation) vs wild-type transposon end (log2 (normalized fold change)); transposon end mutated: right end (5 bp flank + 75 bp right end); higher = more efficient transposition
Outline: as §1

| Sequence | relative integration efficiency (log2) [1] | relative integration efficiency (log2) [2] |
| --- | --- | --- |
| ACATTTGTTGATACAACCATAAAATGATAATTACACCCATAAATTGATAATTATCACACCCATAAATTGATATTGCCTCTGTACCGTTCGTATACGATACATTATACGAAGTTATTCGCACCGACAC | -1.24 ± 0.29 | 1.66 ± 0.14 |
| ACATTTGTTGATACAACCATAAAATGATAATTACACCCATAAATTGATAATTATCACACCCATAAATTGATATTGCCTCTGTACGATCCAGTGATCTCCAAGACGCTGCAAGAGTCCGCACCGACAC | 0.0556 ± 0.23 | -0.117 ± 0.38 |
| ACATTTGTTGATACAACCATAAAATGATAATTACACCCATAAATTGATAATTATCACACCCATAAATTGATATTGCCTCTGTTGACAGCTAGCTCAGTCCTAGGTATAATGCTAGCCGCACCGACAC | -0.0954 ± 0.038 | 0.147 ± 0.2 |
| ACATTTGTTGATACAACCATAAAATGATAATTACACCCATAAATTGATAATTATCACACCCATAAATTGATATTGCCTCTGTTGACGGCTAGCTCAGTCCTAGGTATAGTGCTAGCCGCACCGACAC | -0.43 ± 0.065 | -0.517 ± 0.3 |
| ACATTTGTTGATACAACCATAAAATGATAATTACACCCATAAATTGATAATTATCACACCCATAAATTGATATTGCCTCTGTTGGCGCCCGGCCCTCAGGCCCTGCAGTGAGTTCCAGCACCGACAC | 0.121 ± 0.15 | 0.0708 ± 0.019 |
| ACATTTGTTGATACAACCATAAAATGATAATTACACCCATAAATTGATAATTATCACACCCATAAATTGATATTGCCTCTGTTTATGGCTAGCTCAGTCCTAGGTACAATGCTAGCCGCACCGACAC | -0.0948 ± 0.31 | -0.0571 ± 0.23 |
| ACATTTGTTGATACAACCATAAAATGATAATTACACCCATAAATTGATAATTATCACACCCATAAATTGATATTGCCTCTTAACACCCGTATTACTTCATAATCGTTTGTAATTCAAGCACCGACAC | -0.169 ± 0.26 | 1.41 ± 0.25 |
| ACATTTGTTGATACAACCATAAAATGATAATTACACCCATAAATTGATAATTATCACACCCATAAATTGATATTGCCTCTTCATGCAGATTTGAACAGTAAGTTTACGACATTTTCAGCACCGACAC | -0.604 ± 0.37 | 1.32 ± 0.14 |
| ACATTTGTTGATACAACCATAAAATGATAATTACACCCATAAATTGATAATTATCACACCCATAAATTGATATTGCCTCTTCATGCAGATTTGAACAGTTTCAAATGCTGATTTTCAGCACCGACAC | 0.29 ± 0.31 | 0.372 ± 0.19 |
| ACATTTGTTGATACAACCATAAAATGATAATTACACCCATAAATTGATAATTATCACACCCATAAATTGATATTGCCTCTTCATGGTCTAAACTTCAGTAAGTTTACGACATTTTCAGCACCGACAC | -0.93 ± 0.4 | 1.44 ± 0.19 |
| ACATTTGTTGATACAACCATAAAATGATAATTACACCCATAAATTGATAATTATCACACCCATAAATTGATATTGCCTCTTCATGGTCTAAACTTCAGTCCTGGGCATCAATTTTCAGCACCGACAC | 0.135 ± 0.16 | -0.163 ± 0.029 |
| ACATTTGTTGATACAACCATAAAATGATAATTACACCCATAAATTGATAATTATCACACCCATAAATTGATATTGCCTCTTCATGGTCTAAACTTCAGTTTCAAATGCTGATTTTCAGCACCGACAC | 0.164 ± 0.26 | 0.262 ± 0.23 |
| ACATTTGTTGATACAACCATAAAATGATAATTACACCCATAAATTGATAATTATCACACCCATAAATTGATATTGCCTCTTCATGTGAGCCCAGGCAGTAAGTTTACGACATTTTCAGCACCGACAC | -1.91 ± 0.27 | 2.37 ± 0.34 |
| ACATTTGTTGATACAACCATAAAATGATAATTACACCCATAAATTGATAATTATCACACCCATAAATTGATATTGCCTCTTCATGTGAGCCCAGGCAGTCCTGGGCATCAATTTTCAGCACCGACAC | -0.116 ± 0.3 | 0.0484 ± 0.15 |
| ACATTTGTTGATACAACCATAAAATGATAATTACACCCATAAATTGATAATTATCACACCCATAAATTGATATTGCCTCTTCTTTGCTCACGCATCTAGTCGGTCCACGTTTGGTTCGCACCGACAC | -0.231 ± 0.37 | -0.129 ± 0.28 |
| ACATTTGTTGATACAACCATAAAATGATAATTACACCCATAAATTGATAATTATCACACCCATAAATTGATATTGCCTCTTTATGCAGGACGACGTACGCGTTCCATATAAACCTGTGCACCGACAC | 0.021 ± 0.25 | -0.104 ± 0.19 |
| ACATTTGTTGATACAACCATAAAATGATAATTACACCCATAAATTGATAATTATCACACCCATAAATTGATATTGCCTCTTTGTGAGCGGATAACAAGATCATAGTCAGACCAACATGCACCGACAC | -0.26 ± 0.07 | -0.434 ± 0.17 |
| ACATTTGTTGATACAACCATAAAATGATAATTACACCCATAAATTGATAATTATCACACCCATAAATTGATATTGCCTGAGATCATAGTCAGACCAACATTGCTACGACCCGTATTCGCACCGACAC | 0.0616 ± 0.0024 | 0.172 ± 0.11 |

| Sequence | relative integration efficiency (log2) [1] | relative integration efficiency (log2) [2] |
| --- | --- | --- |
| ACATTTGTTGATACAACCATAAAATGATAATTACACCCATAAATTGATAATTATCACACCCATAAATTGATATTGCGACTGATCATAGTCAGACCAACATTGCTACGACCCGTATTCGCACCGACAC | -0.0819 ± 0.0067 | -0.0636 ± 0.17 |
| ACATTTGTTGATACAACCATAAAATGATAATTACACCCATAAATTGATAATTATCACACCCATAAATTGATATTGCGAGAGATCATAGTCAGACCAACATTGCTACGACCCGTATTCGCACCGACAC | -0.286 ± 0.11 | -0.165 ± 0.12 |
| ACATTTGTTGATACAACCATAAAATGATAATTACACCCATAAATTGATAATTATCACACCCATAAATTGATATTGCTCTGATCATAGTCAGACCAACATTGCTACGACCCGTATTCGCACCGACACT | 0.126 ± 0.019 | -0.11 ± 0.21 |
| ACATTTGTTGATACAACCATAAAATGATAATTACACCCATAAATTGATAATTATCACACCCATAAATTGATATTGCTTATGATCATAGTCAGACCAACATTGCTACGACCCGTATTCGCACCGACAC | 0.0482 ± 0.094 | -0.462 ± 0.31 |
| ACATTTGTTGATACAACCATAAAATGATAATTACACCCATAAATTGATAATTATCACACCCATAAATTGATATTGGGAGTGATCATAGTCAGACCAACATTGCTACGACCCGTATTCGCACCGACAC | -0.111 ± 0.04 | 0.108 ± 0.15 |
| ACATTTGTTGATACAACCATAAAATGATAATTACACCCATAAATTGATAATTATCACACCCATAAATTGATATTTAAGAGGATCATAGTCAGACCAACATTGCTACGACCCGTATTCGCACCGACAC | 0.179 ± 0.034 | 0.08 ± 0.011 |
| ACATTTGTTGATACAACCATAAAATGATAATTACACCCATAAATTGATAATTATCACACCCATAAATTGATATTTAAGCTGATCATAGTCAGACCAACATTGCTACGACCCGTATTCGCACCGACAC | -0.000531 ± 0.0027 | -0.0384 ± 0.075 |
| ACATTTGTTGATACAACCATAAAATGATAATTACACCCATAAATTGATAATTATCACACCCATAAATTGATCGGTAAGAGGATCATAGTCAGACCAACATTGCTACGACCCGTATTCGCACCGACAC | -0.421 ± 0.075 | 1.33 ± 0.2 |
| ACATTTGTTGATACAACCATAAAATGATAATTACACCCATAAATTGATAATTATCACACCCATAAATTGATCTCTGATCATAGTCAGACCAACATTGCTACGACCCGTATTCGCACCGACACTGACT | -0.209 ± 0.021 | 0.731 ± 0.26 |
| ACATTTGTTGATACAACCATAAAATGATAATTACACCCATAAATTGATAATTATCACACCCATAAATTGCGCGGTAAGAGGATCATAGTCAGACCAACATTGCTACGACCCGTATTCGCACCGACAC | -0.4 ± 0.022 | 2.18 ± 0.12 |
| ACATTTGTTGATACAACCATAAAATGATAATTACACCCATAAATTGATAATTATCACACCCATAAATTTCGCGGTAAGAGGATCATAGTCAGACCAACATTGCTACGACCCGTATTCGCACCGACAC | -0.719 ± 0.14 | 2.22 ± 0.05 |
| ACATTTGTTGATACAACCATAAAATGATAATTACACCCATAAATTGATAATTATCACACCCATAACGGTCGCGGTAAGAGGATCATAGTCAGACCAACATTGCTACGACCCGTATTCGCACCGACAC | -0.752 ± 0.12 | 2.14 ± 0.13 |
| ACATTTGTTGATACAACCATAAAATGATAATTACACCCATAAATTGATAATTATCACACCCATACCGGTCGCGGTAAGAGGATCATAGTCAGACCAACATTGCTACGACCCGTATTCGCACCGACAC | -0.58 ± 0.031 | 2.44 ± 0.13 |
| ACATTTGTTGATACAACCATAAAATGATAATTACACCCATAAATTGATAATTATCACACCCATCCCGGTCGCGGTAAGAGGATCATAGTCAGACCAACATTGCTACGACCCGTATTCGCACCGACAC | -0.648 ± 0.11 | 2.36 ± 0.21 |
| ACATTTGTTGATACAACCATAAAATGATAATTACACCCATAAATTGATAATTATCACACCCCGCCCGGTCGCGGTAAGAGGATCATAGTCAGACCAACATTGCTACGACCCGTATTCGCACCGACAC | -0.532 ± 0.054 | 2.47 ± 0.19 |
| ACATTTGTTGATACAACCATAAAATGATAATTACACCCATAAATTGATAATTATCACACCGTATAATTGATATTGCCTCTGATCATAGTCAGACCAACATTGCTACGACCCGTATTCGCACCGACAC | -0.648 ± 0.21 | 2.25 ± 0.06 |
| ACATTTGTTGATACAACCATAAAATGATAATTACACCCATAAATTGATAATTATCACACCGTTAAATTGATATTGCCTCTGATCATAGTCAGACCAACATTGCTACGACCCGTATTCGCACCGACAC | -0.625 ± 0.1 | 1.85 ± 0.26 |
